Experimental data as given in patent US11306156.
Blank lines part the entries; values can stand above or below the substance they belong to.

Columns and labels:
[1] = biological target: Trastuzumab light chain Q38R_Q124R_Q160K_T178R; experiment: SMCA: H1, H2, L1, L2 co-expressed in CHO-3E7, protein A purified, LC-MS; competing light chain m16
[2] = biological target: tissue factor (TF) antigen (UniProt P13726); experiment: SPR (ProteOn), Fab captured via anti-penta-His, TF injected, 1:1 fit; reference wild-type D3H44 Fab; estimated (*) from a Fab differing only in L chain tag
[3] = biological target: tissue factor (TF) antigen (UniProt P13726); experiment: SPR (ProteOn), Fab captured via anti-penta-His, TF injected, 1:1 fit
[4] = biological target: tissue factor (TF) antigen (UniProt P13726); experiment: SPR (ProteOn), Fab captured via anti-penta-His, TF injected, 1:1 fit; reference wild-type D3H44 Fab
[5] = biological target: tissue factor (TF) antigen (UniProt P13726); experiment: SPR (ProteOn), Fab captured via anti-penta-His, TF injected, 1:1 fit; estimated (*) from a Fab differing only in L chain tag
[6] = biological target: tissue factor (TF) antigen (UniProt P13726); experiment: SPR, ProteOn XPR36; His-tagged Fab captured on anti-penta-His, TF injected; 1:1 fit; batch C (+)
[7] = biological target: tissue factor (TF) antigen (UniProt P13726); experiment: SPR as for KD; reference: wild-type D3H44 Fab; batch C (+); Set # read as 9787
[8] = biological target: tissue factor (TF) antigen (UniProt P13726); experiment: SPR as for KD; reference: wild-type D3H44 Fab; batch C (+)
[9] = biological target: tissue factor (TF) antigen (UniProt P13726); experiment: SPR, ProteOn XPR36; His-tagged Fab captured on anti-penta-His, TF injected; 1:1 fit; batch C (+); Set # read as 9787
[10] = biological target: Cetuximab light chain Q38R_Q124R_Q160K_T178R; experiment: SMCA: H1, H2, L1, L2 co-expressed in CHO-3E7, protein A purified, LC-MS; competing light chain m18; against wild-type bispecific
[11] = biological target: Cetuximab light chain Q38R_Q124R_Q160K_T178R; experiment: SMCA: H1, H2, L1, L2 co-expressed in CHO-3E7, protein A purified, LC-MS; competing light chain m10; *** estimated change against a similar wild-type construct
[12] = biological target: Cetuximab light chain Q38R_Q124R_Q160K_T178R; experiment: SMCA: H1, H2, L1, L2 co-expressed in CHO-3E7, protein A purified, LC-MS; competing light chain m18
[13] = biological target: Trastuzumab light chain Q38E_Q124E_Q160E_T180E; experiment: SMCA: H1, H2, L1, L2 co-expressed in CHO-3E7, protein A purified, LC-MS; competing light chain m14
[14] = biological target: Trastuzumab light chain Q38E_Q124E_Q160E_T180E; experiment: SMCA: H1, H2, L1, L2 co-expressed in CHO-3E7, protein A purified, LC-MS; competing light chain m12
[15] = biological target: Trastuzumab light chain Q38E_Q124E_Q160E_T180E; experiment: SMCA: H1, H2, L1, L2 co-expressed in CHO-3E7, protein A purified, LC-MS; competing light chain m12; against wild-type bispecific
[16] = biological target: Trastuzumab light chain Q38E_Q124E_Q160E_T180E; experiment: SMCA: H1, H2, L1, L2 co-expressed in CHO-3E7, protein A purified, LC-MS; competing light chain m14; against wild-type bispecific

% H1L1 Pairing (over all H1 species) [1]: 100%
Substance: Trastuzumab heavy chain Q39E_L143E_K145T_Q179E (from UniProt P0DOX5 2-448)

change in median KD compared to wild type, -(log(KD design)-log(KD wt)) [2]: -0.28
Kd [3]: 0.3 nM
change in median KD compared to wild type, -(log(KD design)-log(KD wt)) [4]: -0.28
Kd [5]: 0.3 nM
Substance: D3H44 Fab heterodimer (H1L1) of LCCA Sets # 9683, 9684: H1 L143E_K145T_Q179E, L1 T178R

Kd [6]: 0.11 nM
change in median KD compared to wild type, -(log(KD design)-log(KD wt)) [7]: 0.16
change in median KD compared to wild type, -(log(KD design)-log(KD wt)) [8]: 0.16
Kd [9]: 0.11 nM
Substance: D3H44 Fab heterodimer, H1L1 of LCCA Sets # 9794, 9796, 9797, 9792, 9789 and 9787 (H1 Q179K; L1 Q124E_T180E)

Change in % H2L2 Pairing (over all H2 species) with respect to wild type [10]: 22.7%
Change in % H2L2 Pairing (over all H2 species) with respect to wild type [11]: 1.6%
% H2L2 Pairing (over all H2 species) [12]: 52.3%
Substance: Cetuximab heavy chain Q39E_L143E_K145T_Q179E

% H2L2 Pairing (over all H2 species) [13]: 100%
% H1L1 Pairing (over all H1 species) [14]: 100%
Change in % H1L1 Pairing (over all H1 species) with respect to wild type [15]: 6%
Change in % H2L2 Pairing (over all H2 species) with respect to wild type [16]: 7%
Substance: Trastuzumab heavy chain Q39R_H172R_Q179K (from UniProt P0DOX5 2-448)
